# Experimental data: the RNAGym collection of RNA variant scans (doi:10.1073/pnas.2313332121)
# B1: TPR t1 (parent)
# chain: GACCAAUCUGCCCUCAGAGCUCGAGAACAUCUUCGGAUGCAGAGGAGGCAGGCUUCGGUGGCGCGAUAGCGCCAACGUCCUCAACCUCCAAUGCAUCCCACCACAUGAUGAUGCCUGAAGAGCCUUGGUUUUUUG
# Variants of: B1
# Test: polymerase ribozyme fitness, log enrichment relative to wild type (log ratio); higher = more active; in vitro selection for triplet polymerase activity
# How it was run: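 Each subunit of a heterodimeric triplet polymerase ribozyme was mutagenized into a library by PCR, transcribed, and subjected to one round of in vitro selection, run in triplicate. Libraries were annealed with a biotinylated primer, the partner subunit and triplets, incubated frozen at −7 °C, and extended constructs were gel-excised, captured on streptavidin beads and recovered by RT-PCR. Input and output libraries were sequenced on Illumina, keeping genotypes with ≥10 input reads and ≥1 read per output. Fitness is log base 2 of genotype enrichment divided by wild-type enrichment, from inverse-variance-weighted replicate averages.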
row,Variant,polymerase ribozyme fitness (log ratio)
1,GACCAAUCUGCCCUCAGAGCUCGAGAACAUCUUCGGAUGCUGAGGAGGCAGGCUUCGGUGGCCCGAUAGCGCCAACGUCCUCAACCUCCAAUGCCUCCCACCACAUGAUGAUGCCUGAAGAGCCUUGGUUUUUUG [A41U G63C A95C],-3.24
2,GACCAAUCUGCCCUCAGAGCUCGAGAACAUCUUCGGAUGCUGAGGAGGCAGGCUUCGGUGGCGCGAUAGCGCCAACGUCCUCAACCUCCAAUGCAUCCCACCACAUGAUAAUGCCUGAAGAGCCUUGGUUUUUUG [A41U G110A],-2.6
3,GACCAAUCUGCCCUCAGAGCUCGAGAACAUCUUCGGAUGCUGAGGAGGCAGGCUUCGGUGGCGCGAUAGCGCCAACGUCCUCAACCUCCAAUGCAUCCCACCACAUGAUGAUGCCUGAAGAGCGUUGGUUUUUUG [A41U C124G],0.981
4,GACCAAUCUGCCCUCAGAGCUCGAGAACAUCUUCGGAUGCUGAGGAGGCAGGCUUCGGUGGCACGAUAGCGCCAACGACCUCUACCUCCAAUGCAUCCCACCACAUGAUGAUGCCUGAAGAGCCUUGGUUUUUUG [A41U G63A U78A A83U],-4.53
5,GACCAAUCUGCCCUCAGAGCUCGAGAACAUCUUCGGAUGCUGAAGAGGCAGGCUUCGGUGGCGCGAUAGCGCCAACGUCCUCAACCUCCAAUGCAUCCCACCACAUGAUGAUGCCUGAAGAGCCUUGGUUUUUUG [A41U G44A],-2.2
6,GACCAAUCUGCCCUCAGAGCUCGAGAACAUCUUCGGAUGCUGAGUAGGCAGGCUUCGGUGGCGCGAUAGCGCCAACGUCCUCAACCUCCAAUGCAUCCCACCACAUGAUGAUGCCUGAAGAGCCUUGGUUUUUUG [A41U G45U],-1.99
7,GACCAAUCUGCCCUCAGAGCUCGAGAACAUCUUCGGAUGCUGAGGAGGCAAGCUUCGGUGGCGCGAUAGCGCCAACGUCCUCAACCGCCAAUGCAUCCCACCACAUGAUGAAGCCUGAGGAGCCUUGGUUUUUUG [A41U G51A U87G U112A A119G],-4.72
8,GACCAAUCUGCCCUCAGAGCUCGAGAACAUCUUCGGAUGCUGAGGAGGCAGGCUUCGGUGGCGCGAUAGCGCCAACGUCCUCAACCUCCAAUGCAUCCCACCAUAUGAUGAUGCCUGAAGAGCUUUGGUUUUUUG [A41U C104U C124U],0.576
9,GACCAAUCUGCCCUCAGAGCUCGAGAACAUCUUCGGAUGCUGAGCAGGCAGGCUUCGGUGGCGCGAUAGCGCCAACGUCCUCAACCUCCAAUGCAUCCCACCACAUGAUGAUGACUGAAGAGCCUUGGUUUUUUG [A41U G45C C114A],-4.37
10,GACCAAUCUGCCCUCAGAGCUCGAGAACAUCUUCGGAUGCUGAGGAGGCAGGCUUCGGUGGCGCGAUAGCGCCAACGUCCUCAACCUCCAAUGCAUCCCACCAAAUGAUGAUGCCUGAAGAGCCUUGGUUUUUUG [A41U C104A],-3.22
11,GACCAAUCUGCCCUCAGAGCUCGAGAACAUCUUCGGAUGCUGAGGAGGCAGGCUUCGGUGGCGCGAUAGCGCCAACGUCCUCAACCUCCAAUGCAUCCCACCACAUGAUGAUCCCUGAAGAGCCUUGGUUUUUUG [A41U G113C],-3.1
12,GACCAAUCUGCCCUCAGAGCUCGAGAACAUCUUCGGAUGCUGAGGAGGCAGGCUUCGGUGUCGCGAUAGCGCCAACGUCCUCAACCUCCAAUGCAUCCCACCACAUGAUGAUGCCUGAAGAGCCUUGGUUUUUUG [A41U G61U],-0.703
13,GACCAAUCUGCCCUCAGAGCUCGAGAACAUCUUCGGAUGCUGAGGAGGCAGGCUUCGGUGGCGCGAUAGCGCCAACUUCCUCAACCUGCAAUGCAUCCCACCACAUGAUGUUGCCUGAAGAGCCUUGGUUUUUUG [A41U G77U C88G A111U],-6.76
14,GACCAAUCUGCCCUCAGAGCUCGAGAACAUCUUCGGAUGCUCAGGAGGCAGGAUUCGGUGGCGCGAUAGCGCCAACGUCCUCAAUCUCCAAUGCAUCCCACCACAUGAUGAUGCCUGAAGAGCCUUGGUUUUUUG [A41U G42C C53A C85U],-4.01
15,GACCAAUCUGCCCUCAGAGCUCGAGAACAUCUUCGGAUGCUGAGGAGGCAGGCUUCGGUGGCGCGAUAGCGCCAACGUCCUCAACCUCCAAUCCAUCCCACCACAUGAUGAUGCCUGAAGAGCCUUGGUUUUUUG [A41U G93C],-2.07
16,GACCAAUCUGCCCUCAGAGCUCGAGAACAUCUUCGGAUGCUGAGGAGGCAGGCUUCGGUGGCGCGAUAGCGCCAACGUCCUCAACCUCCAAUGCAUCCCACCACAUGAUGAUAUAUGAAGAUCCUUGGUUUUUUG [A41U G113A C114U C115A G122U],-5.49
17,GACCAAUCUGCCCUCAGAGCUCGAGAACAUCUUCGGAUGCUGAGGAGCCAGGCUUCGGUGGCGCGAUAGUGCCAACGUCCUCAACCUCCAAUGCAUCCCACCACAUGAUGAUGCCUGAAGAGCCUUGGUUUUUUG [A41U G48C C70U],-3.25
18,GACCAAUCUGCCCUCAGAGCUCGAGAACAUCUUCGGAUGCUGAGGAGGCAGGCUUCGGUGGCGCGAUAGCGCCAACGUCCUCAACCUCUAAUGCAUCCCACCACAUGAUGAUUCCUUAAGAGCCUUGGUUUUUUG [A41U C89U G113U G117U],-5.95
19,GACCAAUCUGCCCUCAGAGCUCGAGAACAUCUUCGGAUGCUAAGGAGGCAGACUUCGGUGGCGCGAUAGCGCCAACGUCCUCAACCUCCAAUGCAUCCCACCACAUGAUGAUGCCUGAAGAGCCUUGGUUUUUUG [A41U G42A G52A],-3.18
20,GACCAAUCUGCCCUCAGAGCUCGAGAACAUCUUCGGAUGCUGAGGAGGCAGGCUUCGGUGGCGCGAUAGCGCCAACGUCCUCAACGUCCAAUGCUUCCCACCACAUGAUGAUGCCUGAAGAGCCUUGGUUUUUUG [A41U C86G A95U],-3.96
21,GACCAAUCUGCCCUCAGAGCUCGAGAACAUCUUCGGAUGCUGAGGAGGCAGGCUUCGGUGGCGCGAUAGCGCCAACGUCCUCAACCUCCAAUGCAUCCCACCACAUGAUGAUGCCUGAAGAGUCUUGGUUUUUUG [A41U C123U],-0.183
